Key:
basigin (Homo sapiens) = basigin (Homo sapiens) (UniProt P35613); details: cited from earlier work
[1] = target: basigin (immunoglobulin domains 1 and 2 of the short isoform, residues 22-205) (UniProt P35613); assay: AUC
[2] = target: basigin (immunoglobulin domains 1 and 2 of the short isoform, residues 22-205) (UniProt P35613); assay: SPR

Q: With PfRH5 (from UniProt Q8IFM5) as the substance, how does the Kd (basigin (Homo sapiens)) read?
A: The Kd was 1100 nM.

Q: Which stoichiometry N [1] does the source give for “PfRH5ΔN (residues K140-Q526) (from UniProt Q8IFM5 140-526) (domain or fragment)” here?
A: Its stoichiometry N is 1.

Q: For “PfRH5ΔNL (from UniProt Q8IFM5 140-526) (domain or fragment)”, which Kd [2] is on record?
A: Its Kd is 1300 nM.

— paper PMC4240730
